Measurements taken from US7422862B2, “Methods for identifying modulators of apoptosis” (The Burnham Institute, priority 2001, dated 2008).

Key:
Assay in all cases: Co-immunoprecipitation with Bcl-2 family proteins in HEK293T cells
Format in all cases: binding
[1] = target: Bcl-2 (Homo sapiens, UniProt P10415)
Text: (§1) (A) HEK293T cells were transfected with pcDNA3-myc plasmids encoding Bax or other Bcl-2 family proteins with GFP, GFP-HN, or GFP-HN(C8P). Cell lysates were immunoprecipitated with polyclonal anti-GFP antibody. The immunoprecipitates or the lysates were blotted with anti-myc or anti-GFP antibodies, respectively. The slower migrating form of GFP seen in lane 1 (asterisk)represents an alternative form of GFP produced from the wild-type (control) p-EGFP-Cl plasmid (http://clonotech.com). (B) Testes of three-week-old mice were homogenized in lysis buffer (0.1% Triton X-100, 50 mM Tris-HCl, pH7.5, 1 mM EDTA, plus protease inhibitor cocktail). The lysates were immunoprecipitated with control rabbit serum or polyclonal anti-mouse Bax antibody. The immunoprecipitates or the lysates were subjected to electrophoresis in Tris/Tricine gels (16% T, 3% C), electroblotted to PVDF membrane, and immunoblotted with polyclonal anti-HN antibody or monoclonal anti-Bax antibody 6A7 (Trevigen). (C) The affinity (Kd) of Bax/HN interaction was measured by fluorescence polarization assay, using various concentrations of purified recombinant Bax and 40 nM rhodamine-conjugated HN peptide. Control peptide from CD40 is also shown (mean +Std Dev; n=3).
(§2) Furthermore, multiple Bcl-2 family proteins were surveyed for interactions with Humanin by coimmunoprecipitation experiments (FIG. 5A).
(§3) Immunoblotting and immunoprecipitations were performed as follows. Immunoblotting was performed as described previously (Fields and Song, Nature 340:245-246 (1989)). For co-immunoprecipitations, cells were cultured in 50 uM […] Valine Alanine Asparate fluoromethyl-ketone (zVAD-fmk) to prevent apoptosis. Cells were suspended in lysis buffer (50 mM Tris-HCl, pH7.4; 150 mM NaCl; 20 mM EDTA; 50 mM NaF; 0.5% NP-40; 0.1 mM Na3VO4; 20 ug/ml Leupeptin; 20 ug/ml Aprotinin; 1 mM DTT; and 1 mM PMSF). Lysates (200 ul diluted in 1 ml final volume of lysis buffer) were cleared by incubation with 15 ul of protein G-Sepharose 4B (Zymed) and then incubated with 15 ul of polyclonal antibody and 15 ul of protein G at 4° C. overnight. Beads were then washed 4 times with 1.5 mls lysis buffer before boiling in Laemmli sample buffer and performing SDS-PAGE/immunoblotting.

[2] = target: T1, Bcl-B (Homo sapiens, UniProt Q9HD36)
T1 construct: expressed in transfected cells; host or cells: HEK293T
T1 sequence (Q9HD36 1-204): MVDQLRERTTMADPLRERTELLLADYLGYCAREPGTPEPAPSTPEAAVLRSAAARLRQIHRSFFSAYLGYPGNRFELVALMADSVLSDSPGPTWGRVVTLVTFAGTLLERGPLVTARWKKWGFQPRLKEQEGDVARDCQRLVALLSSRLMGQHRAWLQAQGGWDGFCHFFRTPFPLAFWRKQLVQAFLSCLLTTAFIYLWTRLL
Text: as §1, §2, §3

[3] = target: Bcl-XL (Homo sapiens, UniProt Q07817)
Text: as §1, §2, §3

[4] = target: T2, Bok (Homo sapiens, UniProt Q9UMX3)
T2 construct: expressed in transfected cells; host or cells: HEK293T
T2 sequence (Q9UMX3 1-212): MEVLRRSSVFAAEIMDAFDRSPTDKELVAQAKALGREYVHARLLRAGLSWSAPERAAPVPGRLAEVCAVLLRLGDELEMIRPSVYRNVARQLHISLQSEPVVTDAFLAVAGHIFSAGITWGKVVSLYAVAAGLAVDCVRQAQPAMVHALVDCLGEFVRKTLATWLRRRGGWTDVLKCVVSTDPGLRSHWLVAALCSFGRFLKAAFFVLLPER
Text: as §1, §2, §3

[5] = target: Mcl-1 (Homo sapiens, UniProt Q07820)
Text: as §1, §2, §3

Sequence of Bcl-XL (Q07817 whole entry, species assumed): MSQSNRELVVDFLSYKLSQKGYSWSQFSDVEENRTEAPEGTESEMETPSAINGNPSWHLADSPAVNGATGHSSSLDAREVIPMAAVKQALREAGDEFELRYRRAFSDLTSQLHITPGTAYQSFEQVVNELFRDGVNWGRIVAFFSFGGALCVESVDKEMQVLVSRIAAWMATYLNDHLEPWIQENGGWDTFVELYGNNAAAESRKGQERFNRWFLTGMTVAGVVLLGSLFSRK
Sequence of Mcl-1 (Q07820 whole entry, species assumed): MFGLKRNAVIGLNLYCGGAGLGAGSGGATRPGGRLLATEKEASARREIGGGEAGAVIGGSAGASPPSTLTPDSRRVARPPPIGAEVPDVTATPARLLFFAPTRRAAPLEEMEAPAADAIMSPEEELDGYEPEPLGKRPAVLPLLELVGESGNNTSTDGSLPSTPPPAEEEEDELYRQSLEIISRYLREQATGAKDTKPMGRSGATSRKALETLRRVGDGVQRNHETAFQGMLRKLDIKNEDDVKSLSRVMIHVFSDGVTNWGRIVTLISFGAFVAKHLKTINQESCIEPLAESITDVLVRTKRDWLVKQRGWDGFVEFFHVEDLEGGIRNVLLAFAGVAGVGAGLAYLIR
Sequence of Bcl-2 (P10415 whole entry, species assumed): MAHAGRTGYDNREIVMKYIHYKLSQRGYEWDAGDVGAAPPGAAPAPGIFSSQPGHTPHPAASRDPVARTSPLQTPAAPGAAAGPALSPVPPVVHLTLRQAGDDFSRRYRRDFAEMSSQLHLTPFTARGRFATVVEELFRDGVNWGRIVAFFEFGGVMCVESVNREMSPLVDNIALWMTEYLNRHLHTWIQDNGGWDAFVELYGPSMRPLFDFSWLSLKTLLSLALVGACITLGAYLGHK

GFP-HN: Wild-type full-length Humanin fused to Green Fluorescent Protein
did not co-immunoprecipitate: co-immunoprecipitation with Bcl-2 [1] | co-immunoprecipitation with Bcl-B [2] | co-immunoprecipitation with Bcl-XL [3] | co-immunoprecipitation with Bok [4] | co-immunoprecipitation with Mcl-1 [5]
